Measurements reported in PMC10065799, “High-throughput profiling of sequence recognition by tyrosine kinases and SH2 domains using bacterial peptide display” (eLife, 2023).

B1: SHP2 wild-type: human full-length SHP2 (residues 1–526; C459E) (protein, UniProt Q06124 2-593, looked up, variant C459E)
Tyrosine-protein phosphatase …: TSRRWFHPNITGVEAENLLLTRGVDGSFLARPSKSNPGDFTLSVRRNGAVTHIKIQNTGDYYDLYGGEKFATLAELVQYYMEHHGQLKEKNGDVIELKYPLNCADPTSERWFHGHLSGKEAEKLLTEKGKHGSFLVRESQSHPGDFVLSVRTGDDKGESNDGKSKVTHVMIRCQELKYDVGGGERFDSLTDLVEHYKKNPMVETLGTVLQLKQPLNTTRINAAEIESRVRELSKLAETTDKVKQGFWEEFETLQQQECKLLYSRKEGQRQENKNKNRYKNILPFDHTRVVLHDGDPNEPVSDYINANIIMPEFETKCNNSKPKKSYIATQGCLQNTVNDFWRMVFQENSRVIVMTTKEVERGKSKCVKYWPDEYALKEYGVMRVRNVKESAAHDYTLRELKLSKVGQGNTERTVWQYHFRTWPDHGVPSDPGGVLDFLEEVHHKQESIMDAGPVVVHESAGIGRTGTFIVIDILIDIIREKGVDCDIDVPKTIQMVRSQRSGMVQTEAQYRFIYMAVQHYIETLQRRIEEEQKSKRKGHEYTNIKYSLADQTSGDQSPLPPCTPTPPCAEMREDSARVYENVGLMQQQKSFR

Key:
c-Src kinase domain = c-Src kinase domain (Homo sapiens, UniProt P12931); assay: RP-HPLC assay to measure peptide phosphorylation kinetics; type: biochemical; details: purified peptide substrate
Description: To validate the enrichment scores observed in the c-Src screening data, the phosphorylation rates were measured in vitro with the purified catalytic domain of c-Src and synthetic 11-residue peptides derived from sequences in the pTyr-Var library. […] Reactions were initiated by adding 1 mM ATP. At various time points, 100 μL aliquots were removed and quenched by the addition of EDTA to a final concentration of 25 mM. Each time point sample was analyzed by analytical RP-HPLC, monitoring absorbance at 214 nm. Forty μL of each time point was injected onto a C18 column (ZORBAX 300 SB-C18, 5 μm, 4.6x150 mm). The solvent system used was water with 0.1% trifluoroacetic acid (solvent A) and acetonitrile with 0.1% trifluoroacetic acid (solvent B). […] The fractional product peak area was plotted as a function of reaction time, and the initial linear regime of this plot was fitted to a straight line to determine a reaction rate. Rates were corrected for substrate and enzyme concentration. Reactions were done in triplicate or quadruplicate.

FGFR1 kinase domain = assay: LC-MS assay of intact SHP2 protein phosphorylation; type: biochemical, human; details: SHP2 10 μM, kinase 1 μM, 1 hr, 37 °C, 2 to 3 measurements
Description: (§1) The same protocol used to express and purify SH2 domains, excluding co-expression of BirA and addition of biotin, was applied to the expression and purification of the SHP2 variants.
(§2) To pre-activate the kinases, 1 μM of each purified kinase domain was preincubated at 37 °C for 30 min in the same buffer conditions used in the kinase domain peptide display screen, with 1 mM ATP. The reaction of the kinase with SHP2 was initiated with the addition of 10 μM SHP2, and the mixture was incubated in 37 °C for 1 hr. To terminate the reaction, the mixture was quenched with 200 mM EDTA. The reaction mixture was diluted 3:2 in water and injected onto a BEH C8 column (Waters) on a UPLC-MS system (Xevo QToF, Waters). Reverse-phase liquid chromatography was carried out at 0.3 mL/min with solvents A (H2O, 0.1% (v/v) formic acid) and B (acetonitrile, 0.1% (v/v) formic acid). Proteins were eluted over a gradient of 5–95% B for 8.5 min. The protein peak on the chromatogram was deconvoluted using the MaxEnt1 algorithm from 32,000–65,000 Da with a resolution of 1 Da/channel over 30 iterations. Peaks were chosen according to the theoretical MW of the protein within a range of 5 Da, and integrated for the signal intensity.

Fyn kinase domain = assay: LC-MS assay of intact SHP2 protein phosphorylation; type: biochemical, human; details: SHP2 10 μM, kinase 1 μM, 1 hr, 37 °C, 2 to 3 measurements
Description: as §1, §2

Row | Molecule | Phosphorylation Rate (c-Src kinase domain) [s⁻¹] | phosphorylation of intact SHP2 by FGFR1 (FGFR1 kinase domain) | phosphorylation of intact SHP2 by Fyn (Fyn kinase domain)
1 | Ac-AGQEEYSAMRD-NH2 [HRAS-Y64] | 0.156 | – | –
2 | B1 | – | fastest | slowest
